From PMC5686756 (2017)

Legend:
[1] = target: T1, GB1-tagged ks-vFLIP (residues 1 to 188) (Kaposi's sarcoma-associated herpesvirus …, UniProt Q76RF1 1-188); assay: ITC; in buffer
[2] = target: T1, GB1-tagged ks-vFLIP (residues 1 to 188); assay: ITC; apparent Kd, competition in presence of spIKKγ (deionized water)

B1: IKKγ fragment encompassing residues 150 to 272 (domain or fragment)
chain: LGELQESQSRLEAATKECQALEGRARAASEQARQLESEREALQQQHSVQVDQLRMQGQSVEAALRMERQAASEEKRKLAQLQVAYHQLFQEYDNHIKSSVVGSERKRGMQLEDLKQQLQQAEE
Question: How did the Kd [1] turn out when B1 was run?
Answer: 0.2 µM

Question: And the Kd [2]?
Answer: 30.4 µM
